Source: patent US20100311648A1 (AstraZeneca / MedImmune, published 2010)
Blank lines part the entries; values can stand above or below the binder they belong to. Positions of bridges follow the written chain, without caps; N, C: chain ends. Non-standard residues stand in square brackets, D forms with d. dPhe(3,4-F2) = N[C@H](Cc1ccc(F)c(F)c1)C(=O)O; dPhe(3,5-F2) = N[C@H](Cc1cc(F)cc(F)c1)C(=O)O; dPhe(4-CN) = N#Cc1ccc(C[C@@H](N)C(=O)O)cc1; dPhe(2-Cl) = N[C@H](Cc1ccccc1Cl)C(=O)O; dPhe(2-Me) = Cc1ccccc1C[C@@H](N)C(=O)O; Orn = NCCC[C@H](N)C(=O)O

How the values were obtained:
[1] = biological target: T1, human melanocortin-4 receptor (human, UniProt P32245 1-332); assay: cell-based or functional assay
T1 sequence (P32245 whole entry): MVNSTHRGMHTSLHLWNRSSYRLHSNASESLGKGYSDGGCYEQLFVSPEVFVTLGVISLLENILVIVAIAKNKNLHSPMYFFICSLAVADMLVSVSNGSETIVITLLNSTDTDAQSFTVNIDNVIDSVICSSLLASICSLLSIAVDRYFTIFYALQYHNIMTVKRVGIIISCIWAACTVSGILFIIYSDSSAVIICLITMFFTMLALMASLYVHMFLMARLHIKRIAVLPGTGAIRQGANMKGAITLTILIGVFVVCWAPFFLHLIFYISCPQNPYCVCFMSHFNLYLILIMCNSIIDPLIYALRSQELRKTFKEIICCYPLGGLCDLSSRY

[2] = biological target: T1, human melanocortin-4 receptor; assay: [I125]-NDP-α-MSH competition, hMC4-R HEK-293 membranes
Procedure: (§1) A competitive inhibition binding assay was performed for exemplified peptides according to the invention using membrane homogenates prepared from HEK-293 cells that express recombinant hMC4-R, hMC3-R, or hMC5-R, and from B-16 mouse melanoma cells (containing endogenous MC1-R). In some instances, HEK-293 cells that express recombinant hMC1-R were employed. Assays were performed in 96 well GF/B Millipore multiscreen filtration plates (MAFB NOB10) pre-coated with 0.5% bovine serum albumin (Fraction V). […] After incubation for 60 minutes at 37° C., the assay mixture was filtered and the membranes washed three times with ice-cold buffer. Filters were dried and counted in a gamma counter for bound radioactivity. […] Each assay was conducted in triplicate and the actual mean values are described, with results less than 0% reported as 0%. Ki values for test peptides of the present invention were determined using Graph-Pad Prism® curve-fitting software.

melanocortin-1 receptor = biological target: T2, melanocortin-1 receptor (mouse (B-16 melanoma cells); in some …, UniProt Q01727 1-315); assay: [I125]-NDP-α-MSH competition, MC1-R membranes
T2 construct: whole, on cells; membrane homogenates; also called MC1-R; mouse B16 MC1-R
T2 sequence (Q01727 whole entry): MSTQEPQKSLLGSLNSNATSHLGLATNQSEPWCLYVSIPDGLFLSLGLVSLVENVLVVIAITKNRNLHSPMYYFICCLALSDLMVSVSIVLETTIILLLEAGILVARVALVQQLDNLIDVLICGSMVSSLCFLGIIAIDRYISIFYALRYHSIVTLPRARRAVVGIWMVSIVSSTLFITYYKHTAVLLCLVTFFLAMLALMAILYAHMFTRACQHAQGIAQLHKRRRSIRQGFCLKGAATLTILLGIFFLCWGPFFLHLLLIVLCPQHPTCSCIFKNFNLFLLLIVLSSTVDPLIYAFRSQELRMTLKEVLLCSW
Procedure: as §1

Binder: Ac-REQ[dPhe(2-Me)]RW[Orn]-NH2 (lactam 2-7, also called No. 110) [Ac-Arg-cyclo(Glu-Gln-D-Phe(2-Me)-Arg-Trp-Orn)-NH2]
EC50, cAMP, 0.1 ng/mL Doxycycline [1]: 0.6 nM
EC50, cAMP, 10 ng/mL Doxycycline [1]: 0.06 nM
Intrinsic Activity, cAMP, 0.1 ng/mL Doxycycline [1]: 84%
Intrinsic Activity, cAMP, 10 ng/mL Doxycycline [1]: 105%
Ki (melanocortin-1 receptor): 105 nM

Binder: RDPXRWK (N-terminal Ac; D-Phe(4-F) 4; lactam Asp 2-Lys 7; C-terminal NH2, also called No. 103) [Ac-Arg-cyclo(Asp-Pro-D-Phe(4-F)-Arg-Trp-Lys)-NH2]
EC50, cAMP, 0.1 ng/mL Doxycycline [1]: 1 nM
EC50, cAMP, 10 ng/mL Doxycycline [1]: 0.13 nM
Intrinsic Activity, cAMP, 0.1 ng/mL Doxycycline [1]: 32%
Intrinsic Activity, cAMP, 10 ng/mL Doxycycline [1]: 100%
Ki [2]: 4 nM

Binder: RDQXRWK (N-terminal Ac; D-Phe(4-CN) 4; lactam Asp 2-Lys 7; C-terminal NH2, also called No. 90) [Ac-Arg-cyclo(Asp-Gln-D-Phe(4-CN)-Arg-Trp-Lys)-NH2]
EC50, cAMP, 0.1 ng/mL Doxycycline [1]: 4 nM
EC50, cAMP, 10 ng/mL Doxycycline [1]: 0.283 nM
Intrinsic Activity, cAMP, 0.1 ng/mL Doxycycline [1]: 31%
Intrinsic Activity, cAMP, 10 ng/mL Doxycycline [1]: 96%
Ki [2]: 5 nM

Binder: Ac-RDN[dPhe(4-CN)]RWK-NH2 (lactam 2-7, also called No. 89) [Ac-Arg-cyclo(Asp-Asn-D-Phe(4-CN)-Arg-Trp-Lys)-NH2]
EC50, cAMP, 10 ng/mL Doxycycline [1]: 17 nM
Intrinsic Activity, cAMP, 0.1 ng/mL Doxycycline [1]: 6%
Intrinsic Activity, cAMP, 10 ng/mL Doxycycline [1]: 87%
Ki [2]: 48 nM

B1: Ac-Arg-cyclo(Lys-Gln-D-Phe(4-CN)-Arg-Trp-Asp)-NH2 (peptide)
peptide: Ac-RKQ[dPhe(4-CN)]RWD-NH2
modifications: lactam 2-7
SMILES: CC(=O)N[C@@H](CCCNC(=N)N)C(=O)N[C@H]1CCCCNC(=O)C[C@@H](C(N)=O)NC(=O)[C@H](Cc2c[nH]c3ccccc23)NC(=O)[C@H](CCCNC(=N)N)NC(=O)[C@@H](Cc2ccc(C#N)cc2)NC(=O)[C@H](CCC(N)=O)NC1=O
notes: also called No. 93
EC50, cAMP, 0.1 ng/mL Doxycycline [1]: 0.3 nM
EC50, cAMP, 10 ng/mL Doxycycline [1]: 0.17 nM
Intrinsic Activity, cAMP, 0.1 ng/mL Doxycycline [1]: 44%
Intrinsic Activity, cAMP, 10 ng/mL Doxycycline [1]: 97%
Ki [2]: 1 nM

Binder: Ac-R[Orn]N[dPhe(3,4-F2)]RWE-NH2 (lactam 2-7, also called No. 75) [Ac-Arg-cyclo(Orn-Asn-D-Phe(3,4-diF)-Arg-Trp-Glu)-NH2]
EC50, cAMP, 0.1 ng/mL Doxycycline [1]: 0.65 nM
EC50, cAMP, 10 ng/mL Doxycycline [1]: 0.125 nM
Intrinsic Activity, cAMP, 0.1 ng/mL Doxycycline [1]: 43%
Ki [2]: 3 nM

Binder: RDPXRWK (N-terminal Ac; D-Phe(2-F) 4; lactam Asp 2-Lys 7; C-terminal NH2) [Ac-Arg-cyclo(Asp-Pro-D-Phe(2-F)-Arg-Trp-Lys)-NH2]
EC50, cAMP, 0.1 ng/mL Doxycycline [1]: 191 nM
EC50, cAMP, 10 ng/mL Doxycycline [1]: 10 nM
Intrinsic Activity, cAMP, 0.1 ng/mL Doxycycline [1]: 16%
Intrinsic Activity, cAMP, 10 ng/mL Doxycycline [1]: 100%
Ki [2]: 78 nM

Binder: Ac-REQ[dPhe(2-Cl)]RW[Orn]-NH2 (lactam 2-7, also called No. 34) [Ac-Arg-cyclo(Glu-Gln-D-Phe(2-Cl)-Arg-Trp-Orn)-NH2]
EC50, cAMP, 0.1 ng/mL Doxycycline [1]: 1 nM
EC50, cAMP, 10 ng/mL Doxycycline [1]: 0.137 nM
Intrinsic Activity, cAMP, 0.1 ng/mL Doxycycline [1]: 79%
Intrinsic Activity, cAMP, 10 ng/mL Doxycycline [1]: 97%
Ki (melanocortin-1 receptor): 128 nM
Ki [2]: 7 nM

The next lines start with the values.

EC50, cAMP, 0.1 ng/mL Doxycycline [1]: 4 nM
EC50, cAMP, 10 ng/mL Doxycycline [1]: 0.45 nM
Intrinsic Activity, cAMP, 0.1 ng/mL Doxycycline [1]: 23%
Intrinsic Activity, cAMP, 10 ng/mL Doxycycline [1]: 85%
Ki [2]: 13 nM
Binder: XDQXRWK (N-terminal Ac; D-Arg 1; D-Phe(4-CN) 4; lactam Asp 2-Lys 7; C-terminal NH2, also called No. 81) [Ac-D-Arg-cyclo(Asp-Gln-D-Phe(4-CN)-Arg-Trp-Lys)-NH2]

EC50, cAMP, 0.1 ng/mL Doxycycline [1]: 2 nM
EC50, cAMP, 10 ng/mL Doxycycline [1]: 0.2 nM
Intrinsic Activity, cAMP, 0.1 ng/mL Doxycycline [1]: 48%
Intrinsic Activity, cAMP, 10 ng/mL Doxycycline [1]: 89%
Ki [2]: 8 nM
Binder: XDQXRWK (N-terminal Ac; D-Arg 1; D-Phe(3,4-diF) 4; lactam Asp 2-Lys 7; C-terminal NH2, also called No. 78) [Ac-D-Arg-cyclo(Asp-Gln-D-Phe(3,4-diF)-Arg-Trp-Lys)-NH2]

EC50, cAMP, 0.1 ng/mL Doxycycline [1]: 0.75 nM
EC50, cAMP, 10 ng/mL Doxycycline [1]: 0.075 nM
Intrinsic Activity, cAMP, 0.1 ng/mL Doxycycline [1]: 78%
Intrinsic Activity, cAMP, 10 ng/mL Doxycycline [1]: 94%
Ki [2]: 6 nM
Binder: XDQXRWK (N-terminal Ac; D-Arg 1; D-Phe(4-F) 4; lactam Asp 2-Lys 7; C-terminal NH2, also called No. 83) [Ac-D-Arg-cyclo(Asp-Gln-D-Phe(4-F)-Arg-Trp-Lys)-NH2]

EC50, cAMP, 0.1 ng/mL Doxycycline [1]: 3 nM
EC50, cAMP, 10 ng/mL Doxycycline [1]: 0.155 nM
Intrinsic Activity, cAMP, 0.1 ng/mL Doxycycline [1]: 34%
Intrinsic Activity, cAMP, 10 ng/mL Doxycycline [1]: 80%
Ki [2]: 8 nM
Binder: Ac-R[Orn]N[dPhe(3,5-F2)]RWE-NH2 (lactam 2-7, also called No. 77) [Ac-Arg-cyclo(Orn-Asn-D-Phe(3,5-diF)-Arg-Trp-Glu)-NH2]
